Laboratory results: patent US20130196320A1, “METHOD FOR IMPROVING CLEAVAGE OF DNA BY ENDONUCLEASE SENSITIVE TO METHYLATION” (CELLECTIS, priority 2010, published 2013)

Key:
[1] = system: XPC4 endogenous locus in 293H cells; assay: Gene targeting induced by XPC4 meganuclease at its endogenous locus, PCR on cellular clones; type: cell-based, human; conditions: for targeted events, % of the transfected cells: XPC4 meganuclease + repair matrix, n=2
Experimental: FIG. 11: XPC4 meganuclease efficiency is impaired by DNA methylation in vivo. 293H cells were co-transfected with 3 μg of XPC4 meganuclease expressing vector or empty vector and 2 μg of DNA repair matrix vector in presence or absence of DNA methylation inhibitor (5-aza-2′deoxycytidine). 480 individual cellular clones were analyzed in each condition for the presence of targeted events using specific PCR amplification.
Cell culture as well as general transfection conditions were described in “material and methods” section of part b) above. For this assay, 293H cells were co-transfected with 3 μg of XPC4 meganuclease expressing vector or empty vector and 2 μg of DNA repair matrix. The DNA repair matrix consists of a left and right arms corresponding to isogenic sequences of 1 kb located on both sides of the meganuclease recognition site. These two homology arms are separated by a heterologous fragment of 29 bp (sequence: […], SEQ ID NO: 64). Two days post-transfection, cells were replated in 10 cm dish. Two weeks later, individual clones were picked and subsequently amplified in 96 wells plates for 3 days. 480 individual cellular clones were then analyzed per condition. DNA extraction was performed with the ZR-96 genomic DNA kit (Zymo research) according to the supplier's protocol. The detection of targeted DNA matrix integrations was performed by specific PCR amplification using the primers: XPC4_F4: 5′-[…]-3′ (SEQ ID NO: 41) (located within the 29 bp of heterologous sequence, i.e. SEQ ID NO: 64) and XPC4_R4: 5′-[…]-3′ (located on the genomic sequence outside of the homology) (SEQ ID NO: 42).

[2] = target: random target (stretch of 12 GA repeats); assay: In vitro binding assay with random target
Experimental: Fluorescein labeled C1234 oligonucleotides were synthesized and HPLC-purified by Eurogentec. To prepare C 1234 duplex corresponding to I-Cre I double strand DNA wild type target, C1234 forward (SEQ ID NO: 31, “a” strand below) labeled with Fluorescein on its 5′ end was mixed with 1 equivalent of C1234_reverse (SEQ ID NO: 32, “b” strand below) in 100 mM Tris-HCl, 50 mM EDTA, 150 mM NaCl, pH8. The mixture was heated to 95° C. for 2 min and then cooled down to 25° C. over 1 hour. C1234 duplex was eventually purified by anion exchange chromatography using a miniQ PE column (GE healthcare) pre-equilibrated with buffer A (20 mM Tris-HCl, pH7.4). Single stranded oligonucleotides and other contaminants were first discarded using a 0 to 360 mM NaCl step gradient and elution of pure C1234 duplex was performed with a 360-1000 mM NaCl linear gradient (5 column volumes). C 1234 duplex and fluorescein final concentrations were assessed by spectrophotometry using their respective extinction coefficients ε260nm=62900 M^−1 cm^−1 and ε495nm=83000 M^−1 cm^−1. As expected, a ratio [C1234 duplex]/[fluorescein]˜1 was obtained. […] After 30 minutes incubation, the fluorescence anisotropy of the mixture was recorded with a Pherastar Plus (BMG Labtech) operating in fluorescence polarization end point mode with excitation and emission wavelengths set to 495 and 520 nm respectively. Apparent dissociation constants were determined by fitting raw data by an hyperbolic function (Ax=(A∞*[Meganuclease])/(Kd+[Meganuclease]) with Ax, the fluorescence anisotropy value obtained at a given meganuclease concentration, A∞, the fluorescence anisotropy value obtained at saturating concentration of meganuclease and Kd the dissociation constant of the equilibrium studied).

[3] = system: random target (stretch of 12 GA repeats); assay: In vitro single turn over cleavage assay with random target; type: biochemical

Molecule | targeted events ([1]; absence of meganuclease, with 5-aza-2′deoxycytidine treatment) | Kd [2] [nM] | kcat [3] [s⁻¹] | targeted events, % of the transfected cells ([1]; 5-aza-2′deoxycytidine (0.2 μM)) | targeted events, % of the transfected cells ([1]; absence of 5-aza-2′deoxycytidine) | increase of targeted event frequency ([1]; with 5-aza-2′deoxycytidine (0.2 μM) vs without) [fold]
Nc1ncn([C@H]2C[C@H](O)[C@@H](CO)O2)c(=O)n1 [5-aza-2′deoxycytidine, reference compound] | no targeted events could be detected | – | – | – | – | –
I-CreI: wild-type I-CreI meganuclease (… homing endonuclease), SEQ ID NO: 1, recombinant Cterm His-tag (protein, listed as Chlamydomonas reinhardtii, C-terminal His-tag) MNTKYNKEFLLYLAGFVDGDGSIIAQIKPNQSYKFKHQLSLTFQVTQKTQRRWFLDKLVDEIGVGYVRDRGSVSDYILSEIKPLHNFLTQLQPFLKLKQKQANLVLKIIEQLPSAKESPDKFLEVCTWVDQIAALNDSKTRKTTSETVRAVLDSLSEKKKSSP | – | > 1000 | <1.7e-06 | – | – | –
ADCY9: engineered meganuclease (SEQ ID NO: 3) designed to cleave adenylate cyclase 9 gene (protein) MANTKYNEEFLLYLAGFVDGDGSIIAQIKPNQSYKFKHQLSLTFRVTQKTQRRWFLDKLVDEIGVGYVRDSGSVSNYDLSEIKPLHNFLTQLQPFLELKQKQANLVLKIIEQLPSAKESPDKFLEVCTWVDQVAALNDSKTRKTTSETVRAVLDSLSEKKKSSPAAGGSDKYNQALSKYNQALSKYNQALSGGGGSNKKFLLYLAGFVDSDGSIIAQIKPDQSYKFKHQLGLTFQVTQKTQRRWFLDKLVDRIGVGYVRDRGSVSDYILSEIKPLHNFLTQLQPFLKLKQKQANLVLKIIEQLPSAKESPDKFLEVCTWVDQVAALNDSKTRKTTSETVRAVLDSLSEKKKSSP | – | > 1000 | <1.7e-06 | – | – | –
XPC4: engineered meganuclease (SEQ ID NO: 2) designed to cleave xeroderma pigmentosum group C gene (XPC) (protein) MANTKYNEEFLLYLAGFVDGDGSIIAQIKPNQSHKFKHALQLTFKVTQKTQRRWFLDKLVDEIGVGYVQDSGSVSNYILSEIKPLHNFLTQLQPFLELKQKQANLALKIIEQLPSAKESPDKFLEVCTWVDQVAALNDSKTRKTTSETVRAVLDSLSEKKKSSPAAGGSDKYNQALSKYNQALSKYNQALSGGGGSNKKFLLYLAGFVDSDGSIIAQIKPNQSHKFKHQLSLAFQVTQKTQRRWFLDKLVDRIGVGYVRDRGSVSDYILSKIKPLHNFLTQLQPFLKLKQKQANLVLKIIEQLPSAKESPDKFLEVCTWVDQVAALNDSKTRKTTSETVRAVLDSLSEKKKSSP | – | > 1000 | <1.7e-06 | 12.5%±0.26 | 1.05%±0.34 | 12
